Like-named read-outs stand apart in the source and are kept apart here. Each block holds one molecule with its values, some of them ahead of it.
Assays:
dopamine D2 receptor [1] = biological target: T1, dopamine D2 receptor (Homo sapiens, UniProt P14416); conditions: COS-7, receptor + Gα16, 10 μM dopamine, cited from earlier work
dopamine D2 receptor [2] = biological target: T1, dopamine D2 receptor; conditions: 10 μM dopamine; for IP Formation % Res.: relative to basal
[3] = biological target: opioid receptor-like (ORL1) receptor
[4] = biological target: formyl peptide (fMLP) receptor
melatonin Mel1c receptor [5] = biological target: melatonin Mel1c receptor
melatonin Mel1b receptor = biological target: T2, melatonin Mel1b receptor
T2 sequence (P49286 whole entry, species assumed, looked up): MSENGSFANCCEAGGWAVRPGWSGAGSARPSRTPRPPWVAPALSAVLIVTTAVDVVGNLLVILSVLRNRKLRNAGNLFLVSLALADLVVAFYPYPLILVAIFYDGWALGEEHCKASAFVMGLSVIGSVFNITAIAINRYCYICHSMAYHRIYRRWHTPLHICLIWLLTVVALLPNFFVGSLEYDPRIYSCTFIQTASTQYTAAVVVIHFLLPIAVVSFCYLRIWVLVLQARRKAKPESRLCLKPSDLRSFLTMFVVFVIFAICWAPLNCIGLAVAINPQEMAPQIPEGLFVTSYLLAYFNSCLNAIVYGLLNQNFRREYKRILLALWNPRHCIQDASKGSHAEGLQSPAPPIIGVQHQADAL

dopamine D2 receptor [6] = biological target: dopamine D2 receptor
melatonin Mel1c receptor [7] = biological target: melatonin Mel1c receptor; remark: listed apart in the source
[8] = COS-7, receptor + 16z25 chimera
[9] = COS-7, receptor + 16z44 chimera

T1 sequence (P14416 whole entry): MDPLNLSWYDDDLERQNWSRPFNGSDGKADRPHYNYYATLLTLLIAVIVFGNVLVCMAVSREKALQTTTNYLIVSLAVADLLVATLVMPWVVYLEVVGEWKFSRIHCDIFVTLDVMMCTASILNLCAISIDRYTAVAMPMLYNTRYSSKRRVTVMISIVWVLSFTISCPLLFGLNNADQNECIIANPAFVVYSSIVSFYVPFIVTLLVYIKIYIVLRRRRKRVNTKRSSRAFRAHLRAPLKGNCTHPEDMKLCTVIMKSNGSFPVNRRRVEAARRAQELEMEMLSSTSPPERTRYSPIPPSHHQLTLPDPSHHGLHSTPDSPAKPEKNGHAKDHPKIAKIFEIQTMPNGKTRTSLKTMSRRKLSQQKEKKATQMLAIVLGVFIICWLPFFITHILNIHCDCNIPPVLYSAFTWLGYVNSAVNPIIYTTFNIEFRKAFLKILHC
T1 sequence (P14416 whole entry): as above
Chain of complement C5a receptor (P21730 whole entry): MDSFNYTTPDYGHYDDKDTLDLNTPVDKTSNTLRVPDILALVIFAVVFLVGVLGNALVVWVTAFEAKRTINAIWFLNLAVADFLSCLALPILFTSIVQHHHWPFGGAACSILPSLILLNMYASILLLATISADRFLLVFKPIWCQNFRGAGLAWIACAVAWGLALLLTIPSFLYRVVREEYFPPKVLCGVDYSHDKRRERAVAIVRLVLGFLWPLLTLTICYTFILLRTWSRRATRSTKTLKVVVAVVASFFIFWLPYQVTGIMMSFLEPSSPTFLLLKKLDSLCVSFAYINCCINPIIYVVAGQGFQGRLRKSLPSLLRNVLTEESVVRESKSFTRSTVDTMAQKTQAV

IP Formation Agonist (dopamine D2 receptor [2]; [8]): 40.1 ± 0.9
IP Formation % Res. (dopamine D2 receptor [2]; [8]): 324%
IP Formation Agonist (dopamine D2 receptor [2]; [9]): 84.5 ± 6.2
IP Formation % Res. (dopamine D2 receptor [2]; [9]): 302%
Molecule: NCCc1ccc(O)c(O)c1 [dopamine]
IP Formation Agonist (dopamine D2 receptor [1]): 24.0 ± 2.3
IP Formation % Res. (dopamine D2 receptor [1]; relative to basal): 207a %

IP formation (PLC stimulation), % Res. [3]: 380 % Res.
IP formation (PLC stimulation), % Res. [4]: 428 % Res.
IP formation (PLC stimulation), % Res. (melatonin Mel1c receptor [5]): 307 % Res.
IP formation (PLC stimulation), % Res. (melatonin Mel1a receptor): 171 % Res.
IP formation (PLC stimulation), % Res. (complement C5a receptor): 457 % Res.
IP formation (PLC stimulation), % Res. (melatonin Mel1b receptor): 177 % Res.
IP formation (PLC stimulation), % Res. (µ-opioid receptor): 269 % Res.
IP formation (PLC stimulation), % Res. (adenosine A1 receptor): 188 % Res.
IP formation (PLC stimulation), % Res. (dopamine D1 receptor): 287 % Res.
IP formation (PLC stimulation), % Res. (dopamine D2 receptor [6]): 302 % Res.
IP formation (PLC stimulation), % Res. (κ-opioid receptor): 257 % Res.
IP formation (PLC stimulation), % Res. (vasopressin V2 receptor): 321 % Res.
IP formation (PLC stimulation), % Res. (α2-adrenergic receptor): 297 % Res.
IP formation (PLC stimulation), % Res. (δ-opioid receptor): 548 % Res.
IP formation (PLC stimulation), % Res. (β2-adrenergic receptor): 307 % Res.
IP formation, enhancement of the agonist response by coexpressed 16z44 (5HT1c receptor): 43%
IP formation, enhancement of the agonist response by coexpressed 16z44 (bombesin receptor): 57%
IP formation, enhancement of the agonist response by coexpressed 16z44 (muscarinic m1 receptor): 34%
EC50 of 2-iodomelatonin for IP formation (melatonin Mel1c receptor [7]): 400 pM
B1: 16z44 chimera (protein)
chain: MARSLTWRCCPWCLTEDEKAAARVDQEINRILLEQKKQDRGELKLLLLGPGESGKSTFIKQMRIIHGAGYSEEERKGFRPLVYQNIFVSMRAMIEAMERLQIPFSRPESKHHASLVMSQDPYKVTTFEKRYAAAMQWLWRDAGIRACYERRREFHLLDSAVYYLSHLERITEEGYVPTAQDVLRSRMPTTGINEYCFSVQKTNLRIVDVGGQKSERKKWIHCFENVIALIYLASLSEYDQCLEENNQENRMKESLALFGTILELPWFKSTSVILFLNKTDILEEKIPTSHLATYFPSFQGPKQDAEAAKRFILDMYTRMYTGCVDGPEGSNRNKETKEIYSHFTCATDTSNIQFVFDAVTDVIIQNNLKYIGLC
